Target: T1, Chordin (Xenopus laevis, UniProt Q91713)
T1 chain: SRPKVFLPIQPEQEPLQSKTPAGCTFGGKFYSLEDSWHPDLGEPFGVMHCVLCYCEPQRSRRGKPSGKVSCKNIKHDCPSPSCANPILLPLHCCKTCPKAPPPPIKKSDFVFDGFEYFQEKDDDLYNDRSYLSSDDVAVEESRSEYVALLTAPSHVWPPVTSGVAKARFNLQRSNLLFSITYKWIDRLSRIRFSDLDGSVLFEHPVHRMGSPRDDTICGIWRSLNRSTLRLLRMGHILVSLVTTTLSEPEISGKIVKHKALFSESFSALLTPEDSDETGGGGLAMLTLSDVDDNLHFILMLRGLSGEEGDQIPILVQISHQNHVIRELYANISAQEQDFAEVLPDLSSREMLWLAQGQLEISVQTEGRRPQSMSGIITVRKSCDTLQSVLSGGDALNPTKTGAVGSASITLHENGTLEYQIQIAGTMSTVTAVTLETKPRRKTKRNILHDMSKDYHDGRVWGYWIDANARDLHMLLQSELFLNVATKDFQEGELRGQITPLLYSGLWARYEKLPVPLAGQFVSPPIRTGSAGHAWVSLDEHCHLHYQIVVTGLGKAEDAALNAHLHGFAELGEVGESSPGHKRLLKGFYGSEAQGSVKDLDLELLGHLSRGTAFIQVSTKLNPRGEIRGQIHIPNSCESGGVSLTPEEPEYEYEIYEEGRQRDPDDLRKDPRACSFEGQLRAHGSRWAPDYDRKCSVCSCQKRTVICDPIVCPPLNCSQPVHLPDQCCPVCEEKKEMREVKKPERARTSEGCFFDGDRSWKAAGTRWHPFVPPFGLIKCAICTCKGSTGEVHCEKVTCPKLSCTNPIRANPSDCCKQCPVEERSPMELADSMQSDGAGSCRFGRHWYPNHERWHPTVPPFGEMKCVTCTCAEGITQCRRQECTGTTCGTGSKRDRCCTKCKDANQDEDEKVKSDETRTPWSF
Assay: SPR

Kd: 1.37 nM
B1: Crossveinless-2 (protein)
chain: not shown

Reference: publication PMC2581521 (2008)
